Our source for the Km, kcat and kcat/Km values is PMC2552378.

Common to all, as to assay: purified protein
Substrate in data set [1]: Nc1ncnc2c1ncn2[C@@H]1O[C@H](COP(=O)(O)OP(=O)(O)OP(=O)(O)O)[C@@H](O)[C@H]1O
The following applies: 6 mM MgCl2, 150 mM KCl, 50 mM Mops pH 7.8.

Substrate in data set [2]: C[N+](C)(C)CCO
The class given is biochemical, Trypanosoma brucei. As to conditions: 5 mM ATP, 6 mM MgCl2, 150 mM KCl, 50 mM Mops pH 7.8.

Substrate in data set [3]: NCCO
Format: biochemical, Trypanosoma brucei. As to conditions: 5 mM ATP, 6 mM MgCl2, 150 mM KCl, 50 mM Mops pH 7.8.

The Km is the substrate concentration at which the rate is half of its maximum. For orientation: kcat means the maximal rate divided by the concentration of active sites. As a reminder, the kcat/Km is the turnover number divided by the Michaelis constant.

B1: TbC/EK2 (Trypanosoma brucei brucei TREU927) (protein)
chain: MALRPFPLGNTPLHAVIRRSAREFECVEAVPASNAVRSPSTASWVSAESLDSIISLANRTSEEMEVDQLIYRLCRSLYHVAKKKSAQIHCHPNHQERQQQQQQASSSGWRSVECEGHFSNMRGREDWCPLLHLFDPRSYYKVMGQPSQHDGCKLCGDVVGTESSPEGVSQWLMSELSVTRLTGGNSNHVYRLGHASFPKKAVLLRVYGDGGGGDVIDRARDIKVMRLMSKSEMGPGLLHTFHWGRVEEFMDGVLTCTTEKLLTSPSLLADVYGGLSKMHQLDYTPLLPENMRTKGMSNGHNSSQSVSDTVSKSGGGQEGPDGTVGGVNELESTCHTSFERVCLRLLRLVSLNVVEEHRHSLESWLAGEVMFVRRELQYRGIPVVLSHNDLNPGNILLSDGAGEASGTVFSDEELRVENTPLSKRYVTRKGKNMNLVERRGFLFIDFEYADANYRCFDLGNTLCELDYDYTRGTEAGGRGFIKYLFVFPPPAMEEAWRGLGEEYPRMPELIYDAWRRGVCDGSSDIGSVALLAVRRYFAERDNVPLETVELSEAQVGEVLLGMLASHLYWTIWSMTMGSAPDNCVECEDCDDQMFAVGGSGLDYMRYGECRLREYIALRGWLAEKGLLS
For B1, in the data set “purified protein [1]” (2 mM choline), the Km was determined as 20.6 ± 1.96 µM, the kcat was 12.91 s⁻¹ and the kcat/Km is 627000 M⁻¹ s⁻¹. Also, in “purified protein [2]”, the Km came out at 31.4 ± 2.6 µM, the catalytic constant (kcat) stood at 12.91 s⁻¹ and the kcat/Km came out at 411000 M⁻¹ s⁻¹. Further, in “purified protein [3]”, the Km is 2560 ± 310 µM, the kcat turned out to be 12.91 s⁻¹ and the kcat/Km turned out to be 5040 M⁻¹ s⁻¹.

B2: TbEK1 (formerly TbC/EK1) (Trypanosoma brucei brucei TREU927) (protein)
chain: MEVAVGHVRHVPCTVPDDPASRMRAIREIVARHCALFMQKGGDVGRSQCASNLGNNITSGTSNGFDADRLQVVAFSGGITNEMYHVYCEGWEAHSVVMRIFGKETERVISRGDELFYQSLFIPTYVRGQNFLVYQYLYQYEPLPFVEMVKEYEKIARGIAFFHVRATLEARSDYSVTPVGGVVGAGGATVGPTNTCSRFDLEENYIVHSLTEWVEQALSETVQEKVDATKRATYASVAQQLKEEAQWLLPLMQRHSPELGESTCHNDLLSGNIMRQKSDGALKIIDFEYAKRNYFLFDIANHFNEYTGLECDYATYFPSEEHMKKFVTTYMCAMREELEKHAEEAKRRQLTDIIPGQQHFFMCDVGGVEGDKRIHRMVQLVKLLTLASHLSWSVWALLQEAVSKTDMDFLRYSQLRLSRYLETRKEFSASS
Take B2: in “purified protein [1]” (2 mM ethanolamine), the Michaelis constant (Km) was determined as 219.2 ± 29 µM, the kcat came to 6.56 s⁻¹ and the kcat/Km stood at 29900 M⁻¹ s⁻¹. In “purified protein [3]”, the Km came out at 18.4 ± 0.9 µM, the kcat amounted to 6.56 s⁻¹ and the kcat/Km stood at 357000 M⁻¹ s⁻¹.
